# Reference: patent US20260216354A1, “ANTI-CMET ANTIBODY, ANTIBODY-DRUG CONJUGATE, AND PREPARATION METHOD THEREFOR AND USE THEREOF” (MEDILINK THERAPEUTICS (SUZHOU) CO., LTD., priority 2022, published 2026)
# Residue numbers refer to the chain shown, from its start.
# B1: 44H10E8: murine-derived anti-cMET monoclonal antibody; VL SEQ ID NO: 5, VH SEQ ID NO: 6 (antibody, V domains shown)
# VH: QVHLQQSGAELARPGASVKMSCKASGYTFISYTIHWVKQSPGQGLEWIGYINPSSGYAKNNPKFQDKATLTADTSSTTAYIQLSSLTSEDSAVYYCTRPYGDFVDWYFDVWGTGTTVTVSS
# VL: NIMMTQSPSSLAVSAGEKVTMNCKSSQSVLYFSNQKNCLAWYQQKPGQSPKLLIYWASTRESGVPDRFTGSGSGTDFTLTISSVQADDLAVYYCQQYLSSLTFGAGTKLELK
# B2: 55A10G6: murine-derived anti-cMET monoclonal antibody; VL SEQ ID NO: 3, VH SEQ ID NO: 4 (antibody, V domains shown)
# VH: QIQLQQSGPELVKPGASVKISCKASGYTFTDYYLNWVRQRPGQGLEWIGWIFPGSGNTKYIEKFKGKATLTVDTSSSTAYMLLSSLTSEDSAVYFCAGGDYGGFTYWGQGTLVAVSA
# VL: DIQMTQSPPSLSASVGETVTITCGASENIYGALNWYQRKQGKSPQLLIYGATNLAAGMSSRFSGSGSGRQFSLKISSLHPDDVATYYCQNVLSEPLTFGAGTKLELK
# B3: 45A5G10: murine-derived anti-cMET monoclonal antibody; VL SEQ ID NO: 1, VH SEQ ID NO: 2 (antibody, V domains shown)
# VH: EVRLEESGGGFVQPGGSMKISCVASGFTFSNYWMNWVRQSPEKGLEWVAQIRLKSLNYATHYAESVKGRFTISRDDSRNSVYLQMNNLRAEDAGIYYCTEEGFAYWGRGTLVTVSA
# VL: IVMTQSPASLPVSLGQRATISCRASESVDDYGVSFVNWFQQKPGQPPKLLIYTASVQESGVPARFSGSGSGTDFSLNIHPLEEDDTAMYFCQQSKEIPPTFGGGTKLEIK
# B4: 41F5B2: murine-derived anti-cMET antibody of Table 1; probably clone 51D5B2 (VL SEQ ID NO: 7, VH SEQ ID NO: 8) (antibody, V domains shown)
# VH: B3 VH with E6D
# VL: B3 VL with S75R
# System: Cyno.cMet-ECD-hFc
# Test: ELISA affinity of murine-derived antibodies to cyno MET-ECD-hFc
# Format: binding
# Experimental: (§1) 4 mice, all female, are selected from each of strains of CDT (Vital River), KM (Vital River), and Balb/c (Gempharmatech Co., Ltd.), and are enrolled into a group at about 6 weeks old. Immunization is performed using cMET-His and hcMET-mFc (Sichuan Sibowo Biotechnology Co., Ltd.), and after 2 times of booster immunization, serum titers are detected through ELISA. For a mouse with a higher ELISA protein titer, an affinity titer of tumor cells MKN-45 and a competition FACS titer of MKN45-HGF are detected through FACS. Finally, 1 mouse from each of CD1, KM, and Balb/c is selected, and the spleen and lymph node thereof are used to prepare cell suspensions for hybridoma fusion with SP2/0 mouse myeloma cells. ELISA preliminary screening is performed through human hMET-ECD-hFc antigen proteins, and after the preliminary screening, positive hybridomas are selected to be cloned. Hybridoma cells are cultured in a serum-free medium, and a collected monoclonal supernatant is purified through the ProA filler to obtain murine-derived antibodies. Affinities of the murine-derived antibodies to human MET-ECD-hFc and cyno MET-ECD-hFc proteins are detected through ELISA, and the affinity of the murine-derived antibodies to the MKN45 tumor cells and blocking of MKN45-HGF ligand competition is detected through FACS.
row,Molecule,Cyno.cMet-ECD-hFc (EC50 = ng/ml)
1,B1,25.72 ng/mL
2,B2,14.9 ng/mL
3,B3,10.34 ng/mL

# Target: T1, cMet-ECD-hFc (Homo sapiens, UniProt P08581)
# T1 construct: made in house; host or cells: HEK293E
# T1 sequence (P08581 25-932): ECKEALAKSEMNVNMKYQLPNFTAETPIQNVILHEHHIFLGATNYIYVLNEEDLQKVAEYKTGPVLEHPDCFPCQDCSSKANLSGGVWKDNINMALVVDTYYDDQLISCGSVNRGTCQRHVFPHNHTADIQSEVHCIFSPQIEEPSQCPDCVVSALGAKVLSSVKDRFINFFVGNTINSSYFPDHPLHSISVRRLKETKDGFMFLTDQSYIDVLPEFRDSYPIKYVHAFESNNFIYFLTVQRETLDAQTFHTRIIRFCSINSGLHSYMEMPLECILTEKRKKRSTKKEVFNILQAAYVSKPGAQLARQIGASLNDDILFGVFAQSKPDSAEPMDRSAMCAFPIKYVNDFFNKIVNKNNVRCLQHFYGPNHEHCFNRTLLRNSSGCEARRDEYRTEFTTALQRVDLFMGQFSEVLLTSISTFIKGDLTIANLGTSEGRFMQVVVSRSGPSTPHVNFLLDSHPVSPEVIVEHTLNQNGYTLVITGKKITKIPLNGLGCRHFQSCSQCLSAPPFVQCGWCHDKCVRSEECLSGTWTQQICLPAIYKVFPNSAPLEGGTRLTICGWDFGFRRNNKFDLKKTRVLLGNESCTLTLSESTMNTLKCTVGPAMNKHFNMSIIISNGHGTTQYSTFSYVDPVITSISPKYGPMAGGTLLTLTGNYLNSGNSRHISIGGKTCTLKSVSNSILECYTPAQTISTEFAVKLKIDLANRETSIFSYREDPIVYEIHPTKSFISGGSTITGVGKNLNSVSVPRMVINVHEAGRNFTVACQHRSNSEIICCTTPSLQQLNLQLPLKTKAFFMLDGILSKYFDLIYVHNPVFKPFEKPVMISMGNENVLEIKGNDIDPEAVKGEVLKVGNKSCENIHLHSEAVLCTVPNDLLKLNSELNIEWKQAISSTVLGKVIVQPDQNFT
# Test: ELISA affinity of murine-derived antibodies to human MET-ECD-hFc
# Format: binding
# Experimental: as §1
row,Molecule,cMet-ECD-hFc (EC50 = ng/ml)
1,B1,15.76 ng/mL
2,B2,7.701 ng/mL
3,B3,6.387 ng/mL
4,B4,4.807 ng/mL

# System: MKN45 tumor cells
# Test: FACS affinity of murine-derived antibodies to MKN45 tumor cells
# Format: binding, human
# Experimental: as §1
row,Molecule,MKN45 (EC50 = ng/ml)
1,B1,149.7 ng/mL
2,B2,63.08 ng/mL
3,B3,41.25 ng/mL
4,B4,348.5 ng/mL

# Target: T2, MKN45-HGF (Homo sapiens, UniProt P08581)
# T2 construct: MKN45 cells expressing c-MET antigens; endogenous in cells; host or cells: MKN45
# T2 sequence (P08581 25-1390): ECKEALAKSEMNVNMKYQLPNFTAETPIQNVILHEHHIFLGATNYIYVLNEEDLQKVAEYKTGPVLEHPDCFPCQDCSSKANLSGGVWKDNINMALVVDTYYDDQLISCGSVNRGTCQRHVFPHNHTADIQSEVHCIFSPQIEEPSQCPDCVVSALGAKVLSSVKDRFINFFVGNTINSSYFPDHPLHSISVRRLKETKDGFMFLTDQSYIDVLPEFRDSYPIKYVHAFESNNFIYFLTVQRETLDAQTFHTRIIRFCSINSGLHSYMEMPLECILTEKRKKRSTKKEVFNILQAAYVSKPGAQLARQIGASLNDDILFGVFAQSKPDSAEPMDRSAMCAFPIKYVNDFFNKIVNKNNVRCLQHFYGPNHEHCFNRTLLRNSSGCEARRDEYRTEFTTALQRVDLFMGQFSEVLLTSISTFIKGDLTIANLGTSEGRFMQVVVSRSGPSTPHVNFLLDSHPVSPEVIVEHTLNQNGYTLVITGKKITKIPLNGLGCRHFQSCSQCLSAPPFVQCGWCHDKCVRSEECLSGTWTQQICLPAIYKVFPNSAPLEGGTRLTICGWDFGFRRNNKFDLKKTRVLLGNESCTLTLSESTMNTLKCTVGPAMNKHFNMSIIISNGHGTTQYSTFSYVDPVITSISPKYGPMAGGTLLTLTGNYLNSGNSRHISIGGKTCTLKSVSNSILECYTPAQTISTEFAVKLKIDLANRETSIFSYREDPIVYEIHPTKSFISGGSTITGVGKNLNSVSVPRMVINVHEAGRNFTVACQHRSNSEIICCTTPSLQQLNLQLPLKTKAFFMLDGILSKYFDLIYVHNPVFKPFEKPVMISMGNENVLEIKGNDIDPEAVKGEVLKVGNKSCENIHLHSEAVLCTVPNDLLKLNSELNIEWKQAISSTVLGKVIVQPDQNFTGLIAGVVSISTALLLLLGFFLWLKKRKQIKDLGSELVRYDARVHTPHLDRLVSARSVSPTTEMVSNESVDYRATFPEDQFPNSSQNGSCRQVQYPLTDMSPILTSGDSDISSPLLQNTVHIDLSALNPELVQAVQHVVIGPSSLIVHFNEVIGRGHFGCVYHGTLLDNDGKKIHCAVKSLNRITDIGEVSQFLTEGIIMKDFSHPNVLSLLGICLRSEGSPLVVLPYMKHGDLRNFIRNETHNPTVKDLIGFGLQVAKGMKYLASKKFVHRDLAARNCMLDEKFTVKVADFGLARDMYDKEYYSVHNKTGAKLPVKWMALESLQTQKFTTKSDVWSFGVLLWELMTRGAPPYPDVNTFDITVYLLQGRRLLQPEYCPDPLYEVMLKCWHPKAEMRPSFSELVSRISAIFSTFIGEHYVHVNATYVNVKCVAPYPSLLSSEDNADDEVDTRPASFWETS
# Test: FACS blocking of MKN45-HGF ligand competition (murine-derived antibodies)
# Format: binding
# Experimental: as §1
row,Molecule,MKN45-HGF competition (IC50 = ng/ml)
1,B1,88.57 ng/mL
2,B2,31.28 ng/mL
3,B3,53.28 ng/mL
4,B4,No activity
